Results from US20020045591A1, “Methods and therapeutic compositions for treating cancer” (priority 1998, published 2002).

B1: α-catenin: HA-tagged chicken α-catenin in the pCGN vector (protein)
chain: TAVTAGNVNFRWDPKSLEIRTLAVERLLEPLVTQVTTLVNTSNKGPSNKKRGRSKKAHVLAASVEQATENFLDKGDKIAKESQFLKEELVAAVEDVRKQGDLMKSASGEFADDPCSSVKRGNMVRAARALLSAVTRLLILADMADVYKLLVQLKVVEEGILKLRNAGTEQDLGIQYKALKPEVDKLNIMAAKRQQELKDVGHRDQMAAARGILQKNVPILYTASQACLQHFDVAAYKANRDLIYKQLQQAVTGISNAAQATASDDAAQQQGGGGELAYALNNFDKQIIVDPSTFSEQRFRPSLEERLESIISGAALMADSSCTRDDRRERIVAECNAVRQALQDLLSEYMGNAGRKERSDALNSAIDKMTKKTRDLRRQLRKAVMDHVSDSFLETNVPLLVLIEAARNGNEKEVKEYTQVFREHANKLIEVANLACSISNNEEGVKLVRMSASQLEALCPQVINAALALAAKPQSKLAQENMELFKEQWEKQVRVLTDAVDDITSIDDFLAVSENHILEDVNKCVIALQEKDVDGLDRTAGAIRGRAARVIHVVTSEMDNYEPGVYTEKVLEATKLLSNTVMPRFTEQVEAAVEALSSDPAQPMDENEFIDRSRLVYDGIRDIRKAVLMIRTPEELDDSDFETEDFDVRSKTSIQTEDDQLIAGQSARAIMAQLPQEQKAKIAEAVASFQEEKSKLDAEVSKWDDSGNDIIVLAKQMCMIMMEMTDFTRGKGPLKNTSDVISAAKKIAEAGSRMDKLGRTIADHCPDSASKQDLLAYLQRIALYCHQLNICSKVKAEVQNLGGELVVSGVDSAMSLIQAAKNLMNAVVQTVKASYVASTKYQKSQGMASLNLPAVSWKMKAPEKKPLVKREKQDETQTKIKRASQKKHVNPVQALSEFKAMESI
modifications: left off: small tags and cut ends
notes: HA-tagged chicken α-catenin in the pCGN vector
B2: plakoglobin: HA-tagged human plakoglobin (protein, UniProt P14923 1-745, looked up)
Junction plakoglobin: MEVMNLMEQPIKVTEWQQTYTYDSGIHSGANTCVPSVSSKGIMEEDEACGRQYTLKKTTTYTQGVPPSQGDLEYQMSTTARAKRVREAMCPGVSGEDSSLLLATQVEGQATNLQRLAEPSQLLKSAIVHLINYQDDAELATRALPELTKLLNDEDPVVVTKAAMIVNQLSKKEASRRALMGSPQLVAAVVRTMQNTSDLDTARCTTSILHNLSHHREGLLAIFKSGGIPALVRMLSSPVESVLFYAITTLHNLLLYQEGAKMAVRLADGLQKMVPLLNKNNPKFLAITTDCLQLLAYGNQESKLIILANGGPQALVQIMRNYSYEKLLWTTSRVLKVLSVCPSNKPAIVEAGGMQALGKHLTSNSPRLVQNCLWTLRNLSDVATKQEGLESVLKILVNQLSVDDVNVLTCATGTLSNLTCNNSKNKTLVTQNSGVEALIHAILRAGDKDDITEPAVCALRHLTSRHPEAEMAQNSVRLNYGIPAIVKLLNQPNQWPLVKATIGLIRNLALCPANHAPLQEAAVIPRLVQLLVKAHQDAQRHVAAGTQQPYTDGVRMEEIVEGCTGALHILARDPMNRMEIFRLNTIPLFVQLLYSSVENIQRVAAGVLCELAQDKEAADAIDAEGASAPLMELLHSRNEGTATYAAAVLFRISEDKNPDYRKRVSVELTNSLFKHDPAAWEAAQSMIPINEPYGDDMDATYRPMYSSDVPLDPLEMHMDMDGDYPIDTYSDGLRPPYPTADHMLA
modifications: HA tag
B3: α-catenin Δβ: HA-tagged mutant α-catenin lacking the β-catenin binding site (amino acids 118-166) (protein)
chain: MTAVTAGNVNFRWDPKSLEIRTLAVERLLEPLVTQVTTLVNTSNKGPSNKKRGRSKKAHVLAASVEQATENFLDKGDKIAKESQFLKEELVAAVEDVRKQGDLMKSASGEFADDPCSAGTEQDLGIQYKALKPEVDKLNIMAAKRQQELKDVGHRDQMAAARGILQKNVPILYTASQACLQHFDVAAYKANRDLIYKQLQQAVTGISNAAQATASDDAAQQQGGGGELAYALNNFDKQIIVDPSTFSEQRFRPSLEERLESIISGAALMADSSCTRDDRRERIVAECNAVRQALQDLLSEYMGNAGRKERSDALNSAIDKMTKKTRDLRRQLRKAVMDHVSDSFLETNVPLLVLIEAARNGNEKEVKEYTQVFREHANKLIEVANLACSISNNEEGVKLVRMSASQLEALCPQVINAALALAAKPQSKLAQENMELFKEQWEKQVRVLTDAVDDITSIDDFLAVSENHILEDVNKCVIALQEKDVDGLDRTAGAIRGRAARVIHVVTSEMDNYEPGVYTEKVLEATKLLSNTVMPRFTEQVEAAVEALSSDPAQPMDENEFIDRSRLVYDGIRDIRKAVLMIRTPEELDDSDFETEDFDVRSKTSIQTEDDQLIAGQSARAIMAQLPQEQKAKIAEAVASFQEEKSKLDAEVSKWDDSGNDIIVLAKQMCMIMMEMTDFTRGKGPLKNTSDVISAAKKIAEAGSRMDKLGRTIADHCPDSASKQDLLAYLQRIALYCHQLNICSKVKAEVQNLGGELVVSGVDSAMSLIQAAKNLMNAVVQTVKASYVASTKYQKSQGMASLNLPAVSWKMKAPEKKPLVKREKQDETQTKIKRASQKKHVNPVQALSEFKAMESI
modifications: left off: small tags and cut ends

What was measured:
[1] = system: β-catenin-dependent transactivation; test: LEF-1 consensus luciferase transactivation in SW480 cells (Example 2); format: cell-based, human; details: co-transfection, FIG. 19A
Protocol: (§1) Cell Culture and Transfections: Canine kidney epithelial cells MDCK, human fibrosarcoma HT1080, 293-T human embryonic kidney cells, Balb/C mouse 3T3 and human colon carcinoma SW480 cell lines were cultured in Dulbecco's modified Eagle's medium supplemented with 10% calf serum (Gibco, Grand Island, N.Y.) at 37° C. in the presence of 7% CO2. The human renal carcinoma cell line KTCTL60 was grown in RPMI medium and 10% calf serum. Cells were transiently transfected with the cDNA constructs described below, using Ca^2+-phosphate or lipofectamine (Gibco) and the expression of the transgene was assessed between 24 and 48 hours after transfection. In some experiments, the expression of the stably transfected NH2 terminus-deleted β-catenin (Δ57) was enhanced in HT1080 cells by overnight treatment with 2 mM sodium butyrate.
(§2) A plasmid encoding β-galactosidase (0.5 μg) was cotransfected to enable normalization for transfection efficiency. The relevant plasmid expressing catenin constructs (4.5 μg) was co-transfected with the reporter, or an empty expression vector was included. After 24-48 hours expression of the reporter (luciferase) and the control (β-galactosidase) genes were determined using enzyme assay systems from Promega (Madison, Wis.).

SW480 cells = test: Double immunofluorescence of β-catenin in SW480 cells (Example 2); format: cell-based, human; details: transfected SW480 cells, FIG. 19B
Text: (§3) Immunofluorescence Microscopy: Cells cultured on glass coverslips were fixed with 3.7% paraformaldehyde in PBS and permeabilized with 0.5% Triton X-100. Monoclonal antibodies against human plakoglobin (11E4), β-catenin (5H10), the COOH terminus of β-catenin (6F9) and α-catenin (1G5) were described and kindly provided by Drs. M. Wheelock and K. Johnson (Univ. Toledo, Ohio). The secondary antibody was FITC- or Cy3-labeled goat anti mouse IgG (Jackson ImmunoResearch Laboratories, West Grove, Pa.). Polyclonal antiserum against β-catenin, monoclonal antibody against pan cadherin (CH-19), vinculin ([…]) and α-actinin (BM75.2) were from Sigma (Holon, Israel). Monoclonal antibodies against the splicing factor SC35 and the HA epitope were kindly provided by Dr. D. Helfman (CSH Laboratory, N.Y.). Polyclonal rabbit antibody against the VSV-G epitope was a gift from Dr. JC Perriard (ETH, Zurich, Switzerland). FITC-labeled goat anti-rabbit IgG antibody was from Cappel/ICN. Monoclonal antibody against LEF-1 was kindly provided by Dr. R. Grosschedl (Univ. Calif. San Francisco, Calif.). […] Images of the fluorescent cells were recorded with a cooled, scientific grade CCD camera (Photometrics, Tucson, Ariz.). Integrated fluorescent intensities in transfected and nontransfected cells were determined, after the background was subtracted.

[2] = system: LEF-1-driven transcription; test: LEF-1 consensus (TOPFLASH) transactivation in 293 cells; format: cell-based, human; details: FIG. 18B
Protocol: as §1, §2

endogenous β-catenin = test: Double immunofluorescence of endogenous β-catenin in transfected cells; format: cell-based; details: FIG. 18C
Text: as §3

| Molecule | effect on constitutive LEF-1 driven transcription [1] | effect on nuclear localization of β-catenin (SW480 cells) | LEF-1-driven transcription, fold lower extent than β-catenin [2] [fold] | nuclear translocation of endogenous β-catenin (endogenous β-catenin) |
| --- | --- | --- | --- | --- |
| B1 | effectively blocked | sequestered to the cytoplasm |  |  |
| B2 |  |  | 3 to 4 | resulted in nuclear translocation of endogenous β-catenin |
| B3 | abolished the transactivation inhibition capacity | did not show this activity |  |  |
